These results are taken from publication PMC9482650, “Quantitative fragmentomics allow affinity mapping of interactomes” (Nature Communications, 2022).

What all share (test): holdup assay
Holding throughout (parameters): key: below the threshold = too weak to quantify, mostly under pKd 3.1 to 4

Assay [1] deals with NHERF4_2, Q86UT5.
Assay [2] deals with T1, LNX2_4, Q8N448.
T1 sequence (Q8N448 595-690, limits assumed, looked up): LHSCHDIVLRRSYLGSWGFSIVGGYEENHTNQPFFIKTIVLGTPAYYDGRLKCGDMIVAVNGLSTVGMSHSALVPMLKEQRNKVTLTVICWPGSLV

The target in assay [3] is T2, MLLT4, P55196.
T2 sequence (P55196 1002-1103, limits assumed, looked up): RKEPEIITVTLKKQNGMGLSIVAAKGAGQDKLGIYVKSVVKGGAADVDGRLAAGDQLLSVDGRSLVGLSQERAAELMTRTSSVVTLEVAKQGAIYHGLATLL

Assay [4] addresses MAGIX, Q9H6Y5.
Assay [5] concerns the target T3, SHROOM4, Q9ULL8.
T3 sequence (Q9ULL8 5-102, limits assumed, looked up): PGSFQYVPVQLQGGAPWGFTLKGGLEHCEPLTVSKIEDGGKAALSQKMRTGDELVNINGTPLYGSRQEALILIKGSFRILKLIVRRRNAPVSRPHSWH

The target of assay [6] is MAST3, O60307.
Assay [7] has as its target PARD3B_3, Q8TEW8.
In assay [8] the target is T4, SHANK2, Q9UPX8.
T4 sequence (Q9UPX8 621-730, limits assumed, looked up): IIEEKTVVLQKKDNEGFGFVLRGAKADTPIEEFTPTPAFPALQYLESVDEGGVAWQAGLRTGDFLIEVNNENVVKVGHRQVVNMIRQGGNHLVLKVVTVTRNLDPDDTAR

The target in assay [9] is PTPN13_2, Q12923.
Assay [10] addresses T5, MPDZ_2, O75970.
T5 sequence (O75970 252-347, limits assumed, looked up): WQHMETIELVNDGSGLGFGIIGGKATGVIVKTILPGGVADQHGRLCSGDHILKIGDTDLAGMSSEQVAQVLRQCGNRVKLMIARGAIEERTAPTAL

Assay [11] deals with TJP1_1, Q07157.
The target of assay [12] is T6, MPDZ_3, O75970.
T6 sequence (O75970 372-473, limits assumed, looked up): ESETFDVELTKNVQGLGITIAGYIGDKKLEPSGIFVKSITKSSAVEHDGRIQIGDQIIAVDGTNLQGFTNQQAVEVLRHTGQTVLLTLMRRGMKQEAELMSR

Assay [13] addresses CNKSR3, Q6P9H4.
Assay [14] addresses T7, SHROOM3, Q8TF72.
T7 sequence (Q8TF72 20-120, limits assumed, looked up): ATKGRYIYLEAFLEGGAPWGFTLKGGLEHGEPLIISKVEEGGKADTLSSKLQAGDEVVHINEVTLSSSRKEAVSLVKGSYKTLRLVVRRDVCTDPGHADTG

The target in assay [15] is T8, USH1C_3, Q9Y6N9.
T8 sequence (Q9Y6N9 447-547, limits assumed, looked up): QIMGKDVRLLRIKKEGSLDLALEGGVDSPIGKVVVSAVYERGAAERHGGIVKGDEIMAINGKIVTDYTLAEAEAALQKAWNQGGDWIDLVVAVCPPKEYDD

Assay [16] has as its target T9, MPDZ_13, O75970.
T9 sequence (O75970 1982-2070, limits assumed, looked up): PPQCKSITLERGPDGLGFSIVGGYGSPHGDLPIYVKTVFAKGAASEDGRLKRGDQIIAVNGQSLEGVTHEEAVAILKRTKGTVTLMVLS

In assay [17] the target is PARD3_1, Q8TEW0.
For assay [18], the target named is T10, PTPN13_4, Q12923.
T10 sequence (Q12923 1783-1878, limits assumed, looked up): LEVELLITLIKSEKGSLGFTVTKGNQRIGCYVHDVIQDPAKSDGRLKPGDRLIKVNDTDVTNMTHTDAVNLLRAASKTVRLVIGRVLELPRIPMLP

Assay [19] addresses PARD3B_2, Q8TEW8.
In assay [20] the target is RIMS2, Q9UQ26. The settings on record: plain residues with an end cap or a label only (N-terminal biotin on a linker: (peg)3).
For assay [21], the target named is T11, CNKSR1, Q969H4.
T11 sequence (Q969H4 191-295, limits assumed, looked up): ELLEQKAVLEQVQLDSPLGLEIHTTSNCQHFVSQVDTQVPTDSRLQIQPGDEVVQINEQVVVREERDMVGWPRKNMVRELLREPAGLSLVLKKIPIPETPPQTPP
The settings on record: plain residues with an end cap or a label only (N-terminal biotin on a linker: (peg)3).

For assay [22], the target named is T12, GIPC1, O14908.
T12 sequence (O14908 128-223, limits assumed, looked up): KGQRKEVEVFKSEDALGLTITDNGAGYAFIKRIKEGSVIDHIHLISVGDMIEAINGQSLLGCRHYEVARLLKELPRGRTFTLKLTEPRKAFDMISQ
Conditions: plain residues with an end cap or a label only (N-terminal biotin on a linker: (peg)3).

In assay [23] the target is DVL2, O14641. Conditions: plain residues with an end cap or a label only (N-terminal biotin on a linker: (peg)3).
The target of assay [24] is CARD14, Q9BXL6. Conditions: plain residues with an end cap or a label only (N-terminal biotin on a linker: (peg)3).
The mark [25] stands for this setting: plain residues with an end cap or a label only (N-terminal biotin on a linker: ado-ado).
[26] abbreviates: modified: phospho on T at position -2 from the C-terminal residue.
The mark [27] stands for this setting: plain residues with an end cap or a label only (N-terminal biotin on a linker: (peg)3).

Chain of PARD3B_2, Q8TEW8 (Q8TEW8 376-471): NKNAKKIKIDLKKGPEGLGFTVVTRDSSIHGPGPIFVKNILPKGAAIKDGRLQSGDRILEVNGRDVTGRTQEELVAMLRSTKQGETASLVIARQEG
Chain of PARD3B_3, Q8TEW8 (Q8TEW8 490-594): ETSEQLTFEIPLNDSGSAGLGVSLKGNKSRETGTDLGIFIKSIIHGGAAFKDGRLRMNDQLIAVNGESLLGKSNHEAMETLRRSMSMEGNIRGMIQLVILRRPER
Chain of MAST3, O60307 (O60307 945-1048): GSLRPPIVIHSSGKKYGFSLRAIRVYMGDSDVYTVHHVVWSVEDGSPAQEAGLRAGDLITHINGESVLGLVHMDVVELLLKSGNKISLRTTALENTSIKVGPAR
Chain of MAGIX, Q9H6Y5 (Q9H6Y5 118-211): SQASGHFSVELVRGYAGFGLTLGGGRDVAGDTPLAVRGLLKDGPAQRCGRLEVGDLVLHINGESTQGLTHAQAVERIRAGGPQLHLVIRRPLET
Chain of PTPN13_2, Q12923 (Q12923 1363-1462): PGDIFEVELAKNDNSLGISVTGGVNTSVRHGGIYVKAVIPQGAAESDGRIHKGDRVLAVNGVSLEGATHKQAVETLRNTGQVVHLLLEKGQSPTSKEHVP
Chain of TJP1_1, Q07157 (Q07157 18-120): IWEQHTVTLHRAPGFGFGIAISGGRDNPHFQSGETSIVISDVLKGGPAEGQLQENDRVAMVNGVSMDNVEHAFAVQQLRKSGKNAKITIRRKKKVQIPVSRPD
Chain of NHERF4_2, Q86UT5 (Q86UT5 220-308): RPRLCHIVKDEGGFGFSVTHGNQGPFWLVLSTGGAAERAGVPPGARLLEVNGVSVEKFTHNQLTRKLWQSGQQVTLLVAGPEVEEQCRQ
Chain of PARD3_1, Q8TEW0 (Q8TEW0 264-372): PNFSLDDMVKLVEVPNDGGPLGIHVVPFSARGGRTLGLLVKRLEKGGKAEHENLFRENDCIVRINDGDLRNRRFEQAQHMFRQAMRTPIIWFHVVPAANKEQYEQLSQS
Chain of DVL2, O14641 (O14641 260-359): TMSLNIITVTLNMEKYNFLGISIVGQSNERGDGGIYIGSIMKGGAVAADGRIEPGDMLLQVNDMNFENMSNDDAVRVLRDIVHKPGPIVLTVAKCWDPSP
Chain of CARD14, Q9BXL6 (Q9BXL6 558-663): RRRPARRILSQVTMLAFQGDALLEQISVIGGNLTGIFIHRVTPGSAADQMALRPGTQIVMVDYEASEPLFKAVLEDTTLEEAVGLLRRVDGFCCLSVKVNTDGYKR
Chain of RIMS2, Q9UQ26 (Q9UQ26 637-758): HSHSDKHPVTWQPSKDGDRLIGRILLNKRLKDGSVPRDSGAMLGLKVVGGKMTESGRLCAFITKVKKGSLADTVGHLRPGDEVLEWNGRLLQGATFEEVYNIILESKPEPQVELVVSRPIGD
Chain of CNKSR3, Q6P9H4 (Q6P9H4 203-303): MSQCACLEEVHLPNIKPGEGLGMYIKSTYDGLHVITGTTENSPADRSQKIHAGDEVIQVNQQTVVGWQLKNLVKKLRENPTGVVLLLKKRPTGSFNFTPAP

In general, pKd refers to the Kd on a negative log10 scale, so that one unit is a factor of ten. As to EKCGKEFSEF [PRKACA, P17612], the negative logarithm of the Kd (pKd) entry in [1] (setting [25]) was “below the threshold”.
Turning to PYPTADHMLA [JUP, P14923], the negative logarithm of the Kd (pKd) entry in [1] (setting [25]) was “below the threshold”.
On to KPGKGSETVV [FZD4, Q9ULV1], for which the pKd entry in [1] (setting [25]) is recorded as “below the threshold”.
Consider TGLWKHETTV [ADGRA3, Q8IWK6], for which the negative-log Kd (pKd) entry in assay [1] (setting [25]) was “below the threshold”.
As to TRKRSGEAAV [PFKM, P08237], the pKd entry in assay [1] (setting [25]) is “below the threshold”.
Turning to QKAPTKEFYA [SDC2, P34741], the pKd entry in assay [1] (setting [25]) is reported as “below the threshold”.
Take SLNANEVEWF [RNF130, Q86XS8]: the negative-log Kd (pKd) entry in assay [1] (setting [25]) is “below the threshold”.
For the molecule SSRTRRETQL [HPV16-E6_-2P, P03126], the pKd entry in assay [2] (setting [26]), in [3] (setting [26]), in [4] (setting [26]), in assay [5] (setting [26]), in assay [6] (setting [26]) and in [7] (setting [26]) was “below the threshold” in each case. Also, the negative logarithm of the Kd (pKd) result in [1] (setting [26]), in assay [8] (setting [26]), in assay [9] (setting [26]), in [10] (setting [26]), in assay [11] (setting [26]) and in assay [12] (setting [26]) was “below the threshold” in each case. The pKd result in [13] (setting [26]), in assay [14] (setting [26]), in assay [15] (setting [26]), in assay [16] (setting [26]), in [17] (setting [26]) and in [18] (setting [26]) was “below the threshold” each time. For the same molecule, the pKd result in assay [19] (setting [26]) was “below the threshold”.
Regarding EKQAKGDTEF [CACYBP, Q9HB71], in [1] (plain residues with an end cap or a label only (N-terminal biotin on a linker: ahx)), the negative logarithm of the Kd (pKd) result is listed as “below the threshold”.
In the case of EDLEDEWEVI [TECPR2, O15040], in assay [1] (setting [25]), the pKd entry is reported as “below the threshold”.
Turning to RYEDTTLVEDTVL [WNV-NS5, Q9Q6P4], the pKd result was “below the threshold” in assay [2] (setting [27]); “below the threshold” in [3] (setting [27]); “below the threshold” in assay [4] (setting [27]); “below the threshold” in assay [5] (setting [27]); “below the threshold” in assay [6] (setting [27]); 4.05 in assay [7] (setting [27]). Further, the negative-log Kd (pKd) result in assay [1] (setting [27]) was “below the threshold”; in assay [8] (setting [27]), 4.59; in assay [20], “below the threshold”; in assay [9] (setting [27]) it was “below the threshold”; in [10] (setting [27]), “below the threshold”; in [11] (setting [27]), “below the threshold”. The negative logarithm of the Kd (pKd) result in assay [12] (setting [27]), in assay [21], in assay [22], in assay [23], in assay [24] and in assay [14] (setting [27]) was “below the threshold” throughout. For the same molecule, the pKd result in assay [15] (setting [27]), in assay [16] (setting [27]), in assay [17] (setting [27]), in assay [18] (setting [27]) and in [19] (setting [27]) was “below the threshold” throughout.
With RRRRSQSRESQC [HBV-HBc, P03193], the pKd in assay [2] (setting [27]) was 3.9; in [3] (setting [27]), “below the threshold”; in assay [4] (setting [27]), “below the threshold”; in [5] (setting [27]) it was “below the threshold”; in [6] (setting [27]), “below the threshold”; in assay [7] (setting [27]) it was “below the threshold”. Also, the pKd result in [1] (setting [27]) was “below the threshold”; in assay [8] (setting [27]) it was “below the threshold”; in assay [20], “below the threshold”; in assay [9] (setting [27]) it was 3.99; in [10] (setting [27]), “below the threshold”; in assay [11] (setting [27]) it was “below the threshold”. Also, the negative logarithm of the Kd (pKd) entry was “below the threshold” in assay [12] (setting [27]); “below the threshold” in assay [13] (setting [27]); 3.9 in [21]; 5.58 in assay [22]; “below the threshold” in assay [23]; “below the threshold” in assay [24]. Further, the negative logarithm of the Kd (pKd) result in assay [14] (setting [27]) is “below the threshold”; in assay [15] (setting [27]), “below the threshold”; in assay [16] (setting [27]), “below the threshold”; in [17] (setting [27]), “below the threshold”; in [18] (setting [27]), “below the threshold”; in assay [19] (setting [27]) it was 3.85.
On to AAVENKVTDL [PLXNB1, O43157], for which the pKd entry in assay [1] (setting [25]) is “below the threshold”.
With QLSFNTDTLC [ABCA2, Q9BZC7], the negative-log Kd (pKd) result in [1] (setting [25]) is listed as “below the threshold”.
